This is an account of results in the supplement of paper PMC10201428.

Data set [1] deals with VchCAST RNA-guided transposition machinery (E. coli BL21(DE3) host, lacZ target). The data set can be described thus: relative integration efficiency (T-RL orientation) vs wild-type transposon end (log2 (normalized fold change)); transposon end mutated: right end (5 bp flank + 75 bp right end); higher = more efficient transposition. In outline:
(§1)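 In E. coli BL21(DE3), a T7-driven effector plasmid was paired with a pUC57 mini-transposon donor containing 1549 left-end or 1849 right-end barcoded transposon variants. Cells grew on plates with 0.1 mM IPTG at 37°C for 18 h. Relative integration efficiency was derived from Illumina reads of genomic integration junctions against input plasmids, as a log-transformed output/input barcode fold change normalised to reference barcodes.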

The test system is the same in data set [2]. Put plainly: relative integration efficiency (T-LR orientation) vs wild-type transposon end (log2 (normalized fold change)); transposon end mutated: right end (5 bp flank + 75 bp right end); higher = more efficient transposition. In outline:
as §1

± gives the standard deviation of the averaged measurements.

Turning to “ACATTTGTAAAAACAACCATAAAATGATAATTACACCCATAAATTGATAATTATCACACCCATAAATTGATATTGCCTCTGATCATAGTCAGACCAACATTGCTACGACCCGTATTCGCACCGACAC”, the “relative integration efficiency (log2)” value in data set [1] was 0.25 ± 0.023; in data set [2], -0.286 ± 0.49.
As for “ACATTTGTAAATAAAACCATACGTTGATTTTACGAAACCATACGCTGAAATAATCACACCCATAAATTGATATTGCCTCTGATCATAGTCAGACCAACATTGCTACGACCCGTATTCGCACCGACAC”, the “relative integration efficiency (log2)” value is -6.595 ± 0.05 in data set [1] and -4.7 ± 0.57 in data set [2].
With “ACATTTGTACATACAACCATAAAATGATAATTACACCCATAAATTGATAATTATCACACCCATAAATTGATATTGCCTCTGATCATAGTCAGACCAACATTGCTACGACCCGTATTCGCACCGACAC”, the “relative integration efficiency (log2)” value in data set [1] is -0.312 ± 0.12; in data set [2], -1.97 ± 0.36.
The matching figures for “ACATTTGTACTAACAACCATAAAATGATAATTACACCCATAAATTGATAATTATCACACCCATAAATTGATATTGCCTCTGATCATAGTCAGACCAACATTGCTACGACCCGTATTCGCACCGACAC”: -1.43 ± 0.32 and -4.23 ± 0.45.
In the case of “ACATTTGTAGAAAAAACCATACGTTGATTTTACGAAACCATACGCTGAAATAATCACACCCATAAATTGATATTGCCTCTGATCATAGTCAGACCAACATTGCTACGACCCGTATTCGCACCGACAC”, the “relative integration efficiency (log2)” value was -6.62 ± 0.1 in data set [1] and -5.68 ± 1.4 in data set [2].
In the same order, the values of “ACATTTGTAGATAAAACCATACGTTGATTTTACGAAACCATACGCTGAAATAATCACACCCATAAATTGATATTGCCTCTGATCATAGTCAGACCAACATTGCTACGACCCGTATTCGCACCGACAC” are -6.57 ± 0.4 and -5.26 ± 0.89.
In the same order, the values of “ACATTTGTCAACCATAAAATGATAATTACACCCATAAATTGATAATTATCACACCCATAAATTGATATTGCCTCTGATCATAGTCAGACCAACATTGCTACGACCCGTATTCGCACCGACACTGACT” are -6.76 ± 0.31 and -4.8 ± 0.66.
The matching figures for “ACATTTGTCGATACAACCATAAAACGATAATTACACCCATAAATGGATAATTATCACACCCAATTTAACTATAACGCTCTGATCATAGTCAGACCAACATTGCTACGACCCGTATTCGCACCGACAC”: -1.19 ± 0.15 and 1.85 ± 0.05.
As to “ACATTTGTCGATACAACCATAAAACGATAATTACACCCATAAATGGATCATTATCACACCCAATTTAACTATAACGCTCTGATCATAGTCAGACCAACATTGCTACGACCCGTATTCGCACCGACAC”, the “relative integration efficiency (log2)” value in data set [1] was -1.91 ± 0.19; in data set [2], 0.741 ± 0.05.
“ACATTTGTCGATACAACCATAAAACGATAATTACACCCATAAATTCATAATTATCACACCCAATTTAACTATAACGCTCTGATCATAGTCAGACCAACATTGCTACGACCCGTATTCGCACCGACAC”: the “relative integration efficiency (log2)” value in data set [1] is -2.45 ± 0.33; in data set [2] it was 1.06 ± 0.15.
In the same order, the values of “ACATTTGTCGATACAACCATAAAACGATAATTACACCCATAAATTCATCATTATCACACCCAATTTAACTATAACGCTCTGATCATAGTCAGACCAACATTGCTACGACCCGTATTCGCACCGACAC” are -2.2 ± 0.19 and 1.48 ± 0.17.
The matching figures for “ACATTTGTCGATACAACCATAAAACGATAATTACACCCATAAATTGATAATTATCACACCCAATTTAACTATAACGCTCTGATCATAGTCAGACCAACATTGCTACGACCCGTATTCGCACCGACAC”: -1.38 ± 0.25 and 2.07 ± 0.094.
The matching figures for “ACATTTGTCGATACAACCATAAAACGATAATTACACCCATAAATTGATCATTATCACACCCAATTTAACTATAACGCTCTGATCATAGTCAGACCAACATTGCTACGACCCGTATTCGCACCGACAC”: -1.88 ± 0.3 and 1.9 ± 0.036.
Regarding “ACATTTGTCGATACAACCATAAAATGATAATTACACCCATAAATGGATAATTATCACACCCAATTTAACTATAACGCTCTGATCATAGTCAGACCAACATTGCTACGACCCGTATTCGCACCGACAC”, the “relative integration efficiency (log2)” value in data set [1] is -1.05 ± 0.18; in data set [2] it was 1.69 ± 0.097.
The matching figures for “ACATTTGTCGATACAACCATAAAATGATAATTACACCCATAAATGGATAATTATCACCCCCAATTTAACTATAACGCTCTGATCATAGTCAGACCAACATTGCTACGACCCGTATTCGCACCGACAC”: -1.38 ± 0.18 and 1.38 ± 0.025.
Take “ACATTTGTCGATACAACCATAAAATGATAATTACACCCATAAATGGATCATTATCACACCCAATTTAACTATAACGCTCTGATCATAGTCAGACCAACATTGCTACGACCCGTATTCGCACCGACAC”: the “relative integration efficiency (log2)” value was -1.61 ± 0.16 in data set [1] and 0.97 ± 0.063 in data set [2].
As to “ACATTTGTCGATACAACCATAAAATGATAATTACACCCATAAATGGATCATTATCACCCCCAATTTAACTATAACGCTCTGATCATAGTCAGACCAACATTGCTACGACCCGTATTCGCACCGACAC”, the results for the “relative integration efficiency (log2)” value in data set [1] and in data set [2] were -1.61 ± 0.32 and 1.19 ± 0.086, respectively.
On to “ACATTTGTCGATACAACCATAAAATGATAATTACACCCATAAATTCATAATTATCACACCCAATTTAACTATAACGCTCTGATCATAGTCAGACCAACATTGCTACGACCCGTATTCGCACCGACAC”, for which the entries for the “relative integration efficiency (log2)” value in data set [1] and in data set [2] were -1.92 ± 0.14 and 1.2 ± 0.05, respectively.
In the same order, the values of “ACATTTGTCGATACAACCATAAAATGATAATTACACCCATAAATTCATAATTATCACCCCCAATTTAACTATAACGCTCTGATCATAGTCAGACCAACATTGCTACGACCCGTATTCGCACCGACAC” are -1.83 ± 0.51 and 1.18 ± 0.19.
For “ACATTTGTCGATACAACCATAAAATGATAATTACACCCATAAATTCATCATTATCACACCCAATTTAACTATAACGCTCTGATCATAGTCAGACCAACATTGCTACGACCCGTATTCGCACCGACAC”, the “relative integration efficiency (log2)” value is -2.26 ± 0.23 in data set [1] and 1.45 ± 0.14 in data set [2].
The matching figures for “ACATTTGTCGATACAACCATAAAATGATAATTACACCCATAAATTCATCATTATCACCCCCAATTTAACTATAACGCTCTGATCATAGTCAGACCAACATTGCTACGACCCGTATTCGCACCGACAC”: -1.99 ± 0.23 and 1.54 ± 0.23.
For the sequence “ACATTTGTCGATACAACCATAAAATGATAATTACACCCATAAATTGATAATTATCACCCCCAATTTAACTATAACGCTCTGATCATAGTCAGACCAACATTGCTACGACCCGTATTCGCACCGACAC”, the “relative integration efficiency (log2)” value is -0.936 ± 0.32 in data set [1] and 2.59 ± 0.2 in data set [2].
In the same order, the values of “ACATTTGTCGATACAACCATAAAATGATAATTACACCCATAAATTGATCATTATCACACCCAATTTAACTATAACGCTCTGATCATAGTCAGACCAACATTGCTACGACCCGTATTCGCACCGACAC” are -1.31 ± 0.23 and 2.328 ± 0.013.
For the sequence “ACATTTGTCGATACAACCATAAAATGATAATTACACCCATAAATTGATCATTATCACCCCCAATTTAACTATAACGCTCTGATCATAGTCAGACCAACATTGCTACGACCCGTATTCGCACCGACAC”, the “relative integration efficiency (log2)” value is -1.31 ± 0.19 in data set [1] and 2.13 ± 0.24 in data set [2].
The matching figures for “ACATTTGTCGATACAACCATAAAATGATAATTACCACCCATAAATTGATAATTATCACACCCATTTAACTATAACGCTCTGATCATAGTCAGACCAACATTGCTACGACCCGTATTCGCACCGACAC”: -1.12 ± 0.076 and 1.62 ± 0.092.
